# Patent publication US20030228675
# Experiments:
# [1] = biological target: GST-hUpf1 1019-1118 (GST fusion protein containing the carboxyl-terminal region of hUpf1, amino acids 1019-1118) (UniProt Q92900)
# [2] = test system: GST-p53 1-70 (GST fusion protein containing the first 70 amino acids of p53)
Substance,phosphorylation in immune complex kinase assay [1],specific kinase activity in immune complex kinase assay [2],"phosphorylation in immune complex kinase assay, compared with GST-hUpf1 1019-1118 [2]","specific kinase activity (ratio of 32P incorporation into substrate to level of HA-tagged protein kinase), relative to ATMWT [2]",phosphorylation in immune complex kinase assay (GST-p53 1-70 (S15A))
HA-ATMWT (HA-tagged wild-type ATM),"this substrate was phosphorylated by both ATM and ATX, with the latter protein kinase showing the higher specific catalytic activity",the specific kinase activity of HA-ATXWT towards GST-p531-70 was significantly higher than that of HA-ATM,,,
HA-ATXWT (HA-tagged wild-type long ATX),"this substrate was phosphorylated by both ATM and ATX, with the latter protein kinase showing the higher specific catalytic activity",,GST-p531-70 was more avidly phosphorylated by ATX than was the GST-hUpf11019-1118 substrate,the specific kinase activity of ATXWT was approximately 3.5-fold higher than that of ATMWT,phosphorylation of GST-p531-70 by ATXWT was nearly abolished by substitution of the Ser-15 residue in p53 with Ala
